The nature of assay [1]: In vitro DTNB thiolase activity assay on clarified cell lysates, butyryl-CoA substrate. Type of assay: biochemical. Particulars: lysate of BL21 E. coli expressing the thiolase; 0.5 mM butyryl-CoA, 0.2 mM acetyl-coA, 0.5 mM DTNB, pH 7.4, 412 nm; no-substrate background subtracted; triplicate. Here is the method:
(§1) Plasmids containing the optimized thiolase genes were transformed into BL21 E. coli cells. Empty plasmid pTrcHisA was also transformed as a negative control. For expression and characterization experiments, shake flasks containing 40 mL TB were innoculated at 5% from overnight cultures. Flasks were incubated at 30° C. at 250 rpm shaking for 2 hours, then protein production was induced with 0.2 mM IPTG and incubated for 4 more hours at 30° C. while shaking. Cells were harvested by centrifugation and pellets were stored at −80° C.
(§2) Activity of thiolase candidates were assessed with an in vitro assay using DTNB (5,5′-Dithiobis(2-nitrobenzoic acid)) as an indicator. The enzyme activity was tested using two different substrates: crotonoyl-CoA and butyryl-CoA. The DTNB interacts with the free thiol created by the condensation of acetyl-CoA and the substrate present (butyryl-CoA or crotonoyl-CoA). Unless otherwise specified, all chemicals were purchased from Sigma-Aldrich Chemical Company, ST. Louis, Mo.
(§3) Cells were lysed using mechanical disruption using a BeadBeater (BioSpec products, Bartlesville, Okla.) using the manufacturer's instructions. The cell lysate was partially clarified by centrifugation (14,000 G for 5 minutes). Protein concentrations of the resulting clarified lysates were measured via BioRad Total Protein assay using the manufacturer's instructions. Lysates were normalized by protein concentration by dilution in 10 mM Tris buffer. The normalized lysates were diluted 1 to 5 in 10 mM Tris buffer. 20 ul of lysate was added to each well for the 96-well plate assay. Each condition was performed in triplicate.
(§4) The reaction mixture contains 10 mM Tris pH 7.4, 5 mM MgSO4, 0.2 mM acetyl-coA, 0.5 mM DTNB, 0.5 mM substrate (either butyryl-CoA or crotonoyl-CoA). […] The reactions in these microplates were monitored at 412 nm. Readings were taken every 9 seconds for 5 minutes and the data was used to calculate activities of each enzyme. The reactions using crotonoyl-CoA as substrate required a 60 sec incubation period before rates were able to be measured.

Assay [2] in a line: In vitro DTNB thiolase activity assay on clarified cell lysates, crotonoyl-CoA substrate. Type of assay: biochemical. Particulars: lysate of BL21 E. coli expressing the thiolase; 0.5 mM crotonoyl-CoA, 0.2 mM acetyl-coA, 0.5 mM DTNB, pH 7.4, 412 nm; 60 sec incubation before measurement; no-substrate background subtracted; triplicate. The procedure:
as §1, §2, §3, §4

As for “thl: acetyl-CoA acetyltransferase, E. coli optimized thl sequence originally from Clostridium acetobutylicum ATCC 824, SEQ ID NOS 5 and 6”, in assay [1], the “Average Activity with background subtracted, Butyryl coenzyme A” value (shortened to “Average Activity … Butyryl coenzyme A”) turned out to be 0.039 µmol/min/mg. Besides, the “Average Activity with background subtracted, Crotonoyl coenzyme A” value (shortened to “Average Activity … Crotonoyl coenzyme A”) in assay [2] was 0.0021 µmol/min/mg.

B1: bktB: Beta-ketothiolase, E. coli optimized bktB sequence originally from Cupriavidus necator ATCC 17699, SEQ ID NOS 1 and 2 (protein)
chain: MTREVVVVSGVRTAIGTFGGSLKDVAPAELGALVVREALARAQVSGDDVGHVVFGNVIQTEPRDMYLGRVAAVNGGVTINAPALTVNRLCGSGLQAIVSAAQTILLGDTDVAIGGGAESMSRAPYLAPAARWGARMGDAGLVDMMLGALHDPFHRIHMGVTAENVAKEYDISRAQQDEAALESHRRASAAIKAGYFKDQIVPVVSKGRKGDVTFDTDEHVRHDATIDDMTKLRPVFVKENGTVTAGNASGLNDAAAAVVMMERAEAERRGLKPLARLVSYGHAGVDPKAMGIGPVPATKIALERAGLQVSDLDVIEANEAFAAQACAVTKALGLDPAKVNPNGSGISLGHPIGATGALITVKALHELNRVQGRYALVTMCIGGGQGIAAIFERI
modifications: Cupriavidus necator
With B1, the “Average Activity … Butyryl coenzyme A” value in assay [1] turned out to be 0.069 µmol/min/mg. For the same molecule, the “Average Activity … Crotonoyl coenzyme A” value in assay [2] turned out to be 0.0043 µmol/min/mg.

B2: phaA: acyltransferase, E. coli optimized PhaA sequence originally from Ralstonia sp., EC 2.3.1.9, SEQ ID NOS 3 and 4 (protein)
chain: MTDVVIVSAARTAVGKFGGSLAKIPAPELGAVVIKAALERAGVKPEQVSEVIMGQVLTAGSGQNPARQAAIKAGLPAMVPAMTINKVCGSGLKAVMLAANAIMAGDAEIVVAGGQENMSAAPHVLPGSRDGFRMGDAKLVDTMIVDGLWDVYNQYHMGITAENVAKEYGITREAQDEFAVGSQNKAEAAQKAGKFDEEIVPVLIPQRKGDPVAFKTDEFVRQGATLDSMSGLKPAFDKAGTVTAANASGLNDGAAAVVVMSAAKAKELGLTPLATIKSYANAGVDPKVMGMGPVPASKRALSRAEWTPQDLDLMEINEAFAAQALAVHQQMGWDTSKVNVNGGAIAIGHPIGASGCRILVTLLHEMKRRDAKKGLASLCIGGGMGVALAVERK
modifications: Ralstonia sp., strain EMBL EON20543.1
Regarding B2, the “Average Activity … Butyryl coenzyme A” value in assay [1] was determined as 0.053 µmol/min/mg. Further, the “Average Activity … Crotonoyl coenzyme A” value in assay [2] was found to be 0.0001 µmol/min/mg.

(Values after patent publication US9809833B2, “Pathways to adipate semialdehyde and other organic products” (BioAmber Inc., priority 2012, dated 2017).)
